{
  "source": "patent US8431396B2",
  "about": "“Anti-angiogenic peptides” (The Cleveland Clinic Foundation, priority 2003, dated 2013)",
  "molecules": {"B1": {"name": "TIMP3: tissue inhibitor of metalloproteinases-3; recombinant human form expressed in NSO myeloma cells, or wild-type expressed in transfected cells (protein, listed as Homo sapiens)", "chain": "MTPWLGLIVLLGSWSLGDWGAEACTCSPSHPQDAFCNSDIVIRAKVVGKKLVKEGPFGTLVYTIKQMKMYRGFTKMPHVQYIHTEASESLCGLKLEVNKYQYLLTGRVYDGKMYTGLCNFVERWDQLTLSQRKGLNYRYHLGCNCKIKSCYYLPCFVTSKNECLWTDMLSNFGYPGYQSKHYACIRQKGGYCSWYRGWAPPDKSIINATDP"}},
  "key": {"[1]": {"system": "PAEKDR cells", "assay": "VEGF-stimulated proliferation ([3H]thymidine) of transfected PAEKDR cells", "type": "cell-based, porcine", "settings": "VEGF 15 ng/ml", "method": "Cells were seeded at a density of 5000 cells/well in 24 well culture plates and cultured for 24 h in growth medium. […] High molecular weight DNA was precipitated using 5% trichloroacetic acid at 4° C. for 30 min After two washes with ice-cold H2O, 3H radioactivity was solubilized in 1 N NaOH for 20 min at room temperature, acidified by addition of 2 N HCl, and measured using a liquid scintillation counter. Each sample was assayed in triplicate and the assays were repeated at least twice."}, "[2]": {"system": "PAE-PDGFR-β cells", "assay": "Endothelial cell proliferation in response to PDGF-BB", "type": "cell-based, porcine", "settings": "recombinant TIMP3 (1 and 5 μg/ml) or overexpression"}, "[3]": {"system": "MS1 mouse endothelial cells", "assay": "MS1 endothelial cells infected with adenovirus expressing WT-TIMP3 or TIMP3Cys1-Ser: apoptosis and [3H]thymidine incorporation", "type": "cell-based", "settings": "MS1 cells infected with wild-type or mutant virus", "method": "MS1 mouse endothelial cells\\(American Type Culture Collection, Manassas, Va.) were cultured until 80% confluent and infected with adenovirus as described. Cells were infected at 50 or 200 plaque-forming units per cell for 18 h. Medium was then replaced with fresh complete medium and left for 48 h until analysis.\nA modified Boyden chamber assay for migration and proliferation assays were carried out as described."}},
  "data": [
    {"molecule": "B1", "values": [
      {"measurement": "VEGF-stimulated proliferation of cells expressing TIMP3 variant", "setting": "[1]", "result": "dramatic attenuation in the VEGF response"},
      {"measurement": "effect on proliferative response to PDGF-BB", "setting": "[2]", "result": "Neither recombinant TIMP3 nor TIMP3 overexpression affected the proliferative response"},
      {"measurement": "apoptosis after adenovirus infection", "setting": "[3]", "result": "No apoptosis was observed"}
    ]}
  ]
}
